Legend:
[1] = molecular target: the molecule itself; assay: SDS-resistant oligomers on SDS-PAGE and Western blot; striatal synaptosomes of HA-DAT knock-in mice with vehicle, AIM-100 or ALs (20-40 μM, 2 h, 37 °C) in KRHG or KRHG/F12 (1:1); lysates in Laemmli buffer 30 min 42 °C; DAT antibody
[2] = molecular target: the molecule itself; assay: SDS-resistant oligomers on SDS-PAGE and Western blot; PAE cells stably expressing the tagged transporter, incubated with vehicle (DMSO), AIM-100 or ALs (20 μM, 2 h, 37 °C), with or without cocaine; lysis in TGH with 1% deoxycholate; Laemmli buffer 5 min 95 °C; 7.5% SDS-PAGE; GFP antibody

| Protein | stoichiometry N [1] | stoichiometry N [2] |
| --- | --- | --- |
| endogenous HA-DAT of HA-DAT knock-in mice (natural protein, mouse, UniProt Q61327 1-619, looked up, also called endogenous mouse HA-DAT; source: endogenous, striatal synaptosomes from HA-DAT knock-in mice, in lysate) MSKSKCSVGPMSSVVAPAKEPNAVGPREVELILVKEQNGVQLTNSTLINPPQTPVEVQERETWSKKIDFLLSVIGFAVDLANVWRFPYLCYKNGGGAFLVPYLLFMVIAGMPLFYMELALGQFNREGAAGVWKICPVLKGVGFTVILISFYVGFFYNVIIAWALHYFFSSFTMDLPWIHCNNTWNSPNCSDAHSSNSSDGLGLNDTFGTTPAAEYFERGVLHLHQSRGIDDLGPPRWQLTACLVLVIVLLYFSLWKGVKTSGKVVWITATMPYVVLTALLLRGVTLPGAMDGIRAYLSVDFYRLCEASVWIDAATQVCFSLGVGFGVLIAFSSYNKFTNNCYRDAIITTSINSLTSFSSGFVVFSFLGYMAQKHNVPIRDVATDGPGLIFIIYPEAIATLPLSSAWAAVFFLMLLTLGIDSAMGGMESVITGLVDEFQLLHRHRELFTLGIVLATFLLSLFCVTNGGIYVFTLLDHFAAGTSILFGVLIEAIGVAWFYGVQQFSDDIKQMTGQRPNLYWRLCWKLVSPCFLLYVVVVSIVTFRPPHYGAYIFPDWANALGWIIATSSMAMVPIYATYKFCSLPGSFREKLAYAITPEKDRQLVDRGEVRQFTLRHWLLV | 3 | – |
| YFP- and HA-epitope tagged dopamine transporter (YFP-HA-DAT), wild type (natural protein, human, UniProt Q01959 1-620, looked up, dopamine transporter (DAT), human; also called WT YFP-HA-DAT; wtDAT; source: PAE cells, stably expressing, in intact cells and in lysate) MSKSKCSVGLMSSVVAPAKEPNAVGPKEVELILVKEQNGVQLTSSTLTNPRQSPVEAQDRETWGKKIDFLLSVIGFAVDLANVWRFPYLCYKNGGGAFLVPYLLFMVIAGMPLFYMELALGQFNREGAAGVWKICPILKGVGFTVILISLYVGFFYNVIIAWALHYLFSSFTTELPWIHCNNSWNSPNCSDAHPGDSSGDSSGLNDTFGTTPAAEYFERGVLHLHQSHGIDDLGPPRWQLTACLVLVIVLLYFSLWKGVKTSGKVVWITATMPYVVLTALLLRGVTLPGAIDGIRAYLSVDFYRLCEASVWIDAATQVCFSLGVGFGVLIAFSSYNKFTNNCYRDAIVTTSINSLTSFSSGFVVFSFLGYMAQKHSVPIGDVAKDGPGLIFIIYPEAIATLPLSSAWAVVFFIMLLTLGIDSAMGGMESVITGLIDEFQLLHRHRELFTLFIVLATFLLSLFCVTNGGIYVFTLLDHFAAGTSILFGVLIEAIGVAWFYGVGQFSDDIQQMTGQRPSLYWRLCWKLVSPCFLLFVVVVSIVTFRPPHYGAYIFPDWANALGWVIATSSMAMVPIYAAYKFCSLPGSFREKLAYAIAPEKDRELVDRGEVRQFTLRHWLKV | – | 3 |
